According to US5861377, “Antistasin type serine protease inhibitors” (Novartis AG, dated 1999):
No end group written: not given here.

Legend:
Assay in all cases: enzyme inhibition at equilibrium, steady state velocities fitted to the equation for tight binding inhibitors
human cathepsin G = human cathepsin G (human, UniProt P08311)
bovine trypsin = bovine trypsin (bovine, UniProt P00760)
[1] = biological target: porcine tissue kallikrein (porcine, UniProt P00752)
human plasmin = human plasmin (human, UniProt P00747)
bovine chymotrypsin = bovine chymotrypsin (bovine, UniProt P00766)

Ki (human cathepsin G): 2.9 nM
Ki (bovine trypsin): 7 nM
Ki [1]: 13 nM
Ki (human plasmin): 138 nM
Ki (bovine chymotrypsin): 6.4 nM
B1: hirustasin (Hirudo antistasin) (other)
chain: TQGNTCGGETCSAAQVCLKGKCVCNEVHCRIRCKYGLKKDENGCEYPCSCAKASQ
modifications: not fully specified; cysteine pairing not given here
